Measurements taken from publication PMC7793260, “MreC and MreD balance the interaction between the elongasome proteins PBP2 and RodA” (PLoS Genetics, 2020).
Residue numbers refer to the chain shown, from its start. In names and notes the source's numbering stands.

B1: mCh-RodA^Q207R (enzyme, E. coli, UniProt P0ABG7 1-370, looked up)
chain: MTDNPNKKTFWDKVHLDPTMLLILLALLVYSALVIWSASGQDIGMMERKIGQIAMGLVIMVVMAQIPPRVYEGWAPYLYIICIILLVAVDAFGAISKGAQRWLDLGIVRFQPSEIAKIAVPLMVARFINRDVCPPSLKNTGIALVLIFMPTLLVAAQPDLGTSILVALSGLFVLFLSGLSWRLIGVAVVLVAAFIPILWFFLMHDYRRQRVMMLLDPESDPLGAGYHIIQSKIAIGSGGLRGKGWLHGTQSQLEFLPERHTDFIFAVLAEELGLVGILILLALYILLIMRGLWIAARAQTTFGRVMAGGLMLILFVYVFVNIGMVSGILPVVGVPLPLVSYGGSALIVLMAGFGIVMSIHTHRKMLSKSV
B2: mCh-RodA^R109A (enzyme, E. coli, UniProt P0ABG7 1-370, looked up)
chain: B1 chain with R109A, R207Q
B3: PBP2 (wild type), fused to mKO or to mCherry (enzyme, E. coli, UniProt P0AD65 1-633, looked up)
chain: MKLQNSFRDYTAESALFVRRALVAFLGILLLTGVLIANLYNLQIVRFTDYQTRSNENRIKLVPIAPSRGIIYDRNGIPLALNRTIYQIEMMPEKVDNVQQTLDALRSVVDLTDDDIAAFRKERARSHRFTSIPVKTNLTEVQVARFAVNQYRFPGVEVKGYKRRYYPYGSALTHVIGYVSKINDKDVERLNNDGKLANYAATHDIGKLGIERYYEDVLHGQTGYEEVEVNNRGRVIRQLKEVPPQAGHDIYLTLDLKLQQYIETLLAGSRAAVVVTDPRTGGVLALVSTPSYDPNLFVDGISSKDYSALLNDPNTPLVNRATQGVYPPASTVKPYVAVSALSAGVITRNTTLFDPGWWQLPGSEKRYRDWKKWGHGRLNVTRSLEESADTFFYQVAYDMGIDRLSEWMGKFGYGHYTGIDLAEERSGNMPTREWKQKRFKKPWYQGDTIPVGIGQGYWTATPIQMSKALMILINDGIVKVPHLLMSTAEDGKQVPWVQPHEPPVGDIHSGYWELAKDGMYGVANRPNGTAHKYFASAPYKIAAKSGTAQVFGLKANETYNAHKIAERLRDHKLMTAFAPYNNPQVAVAMILENGGAGPAVGTLMRQILDHIMLGDNNTDLPAENPAVAAAEDH
notes: PBP2, peptidoglycan transpeptidase of the E. coli elongasome, wild type; mKO-PBP2 in all others; also called mKO-PBP2^WT; mKO-PBP2; source: E. coli LMC500, expressed from plasmid (15 uM IPTG), in fixed cells; not shown: mKO (donor construct, pWA004) or mCherry (acceptor construct), N-terminal, kept
B4: mCh-MreC (natural protein, E. coli, UniProt P16926 1-367, looked up)
chain: MKPIFSRGPSLQIRLILAVLVALGIIIADSRLGTFSQIRTYMDTAVSPFYFVSNAPRELLDGVSQTLASRDQLELENRALRQELLLKNSELLMLGQYKQENARLRELLGSPLRQDEQKMVTQVISTVNDPYSDQVVIDKGSVNGVYEGQPVISDKGVVGQVVAVAKLTSRVLLICDATHALPIQVLRNDIRVIAAGNGCTDDLQLEHLPANTDIRVGDVLVTSGLGGRFPEGYPVAVVSSVKLDTQRAYTVIQARPTAGLQRLRYLLLLWGADRNGANPMTPEEVHRVANERLMQMMPQVLPSPDAMGPKLPEPATGIAQPTPQQPATGNAATAPAAPTQPAANRSPQRATPPQSGAQPPARAPGGQ
B5: mCh-MreB^SW (natural protein, E. coli, UniProt P0A9X4 1-347, looked up)
chain: MLKKFRGMFSNDLSIDLGTANTLIYVKGQGIVLNEPSVVAIRQDRAGSPKSVAAVGHDAKQMLGRTPGNIAAIRPMKDGVIADFFVTEKMLQHFIKQVHSNSFMRPSPRVLVCVPVGATQVERRAIRESAQGAGAREVFLIEEPMAAAIGAGLPVSEATGSMVVDIGGGTTEVAVISLNGVVYSSSVRIGGDRFDEAIINYVRRNYGSLIGEATAERIKHEIGSAYPGDEVREIEVRGRNLAEGVPRGFTLNSNEILEALQEPLTGIVSAVMVALEQCPPELASDISERGMVLTGGGALLRNLDRLLMEETGIPVVVAEDPLTCVARGGGKALEMIDMHGGDLFSEE
notes: MreB of E. coli with mCherry inserted inside the chain (sandwich fusion); also called sandwich fusion of MreB-mCherry-MreB; source: E. coli LMC500, expressed from plasmid (15 uM IPTG), in fixed cells

How the values were obtained:
Assay in all cases: FRET or BRET; two-plasmid spectral FRET in E. coli LMC500 cells; mCherry fusion as acceptor, mKO fusion as donor; Gb4 medium, steady state at 28 C, 15 uM IPTG for two mass doublings, FAGA-fixed; acceptor FRET efficiency (EfA) by spectral unmixing
[1] = biological target: B3; conditions: partners not purified
[2] = biological target: the molecule itself
mKO-PBP2^L61R = biological target: T1, mKO-PBP2^L61R (E. coli, UniProt P0AD65 1-633, L61R); conditions: partners not purified
T1 construct: PBP2 of E. coli with L61R (hyperactive variant); made from pWA004 by mutagenesis PCR; also called hyperactive PBP2^L61R; source: E. coli LMC500, expressed from plasmid (15 uM IPTG), in fixed cells; not shown: mKO, N-terminal, kept
T1 sequence (looked up): B3 chain with L61R

[3] = biological target: T2, RodA (wild type), fused to mCherry or to mKO (E. coli, UniProt P0ABG7 1-370); conditions: partners not purified
T2 construct: RodA, peptidoglycan glycosyltransferase of the E. coli elongasome; wild-type rodA gene; mCh-RodA in all others; also called mCh-RodA; mKO-RodA; source: E. coli LMC500, expressed from plasmid (15 uM IPTG), in fixed cells; not shown: mCherry (acceptor construct, pSAV047-RodA) or mKO (donor construct, pXL56), N-terminal, kept
T2 sequence (looked up): B1 chain with R207Q

Row | Binder | EfA (acceptor FRET efficiency) [1] [%] | further results
1 | B1 | 12.7 | 
2 | B2 | 12.5 | 
3 | B3 |  | EfA (acceptor FRET efficiency) [2]: 9.2%
4 | B4 | 5.1 | EfA (acceptor FRET efficiency) (mKO-PBP2^L61R): 5.3%
5 | B5 |  | EfA (acceptor FRET efficiency) [3]: 7.2%
